We go through 1 protein from publication PMC9898259, “Cryo-EM structure supports a role of AQP7 as a junction protein” (Nature Communications, 2023).

This data set deals with the molecule itself. The experiment in a line: cryo-EM structure; single-particle cryo-EM; 1 mg/mL AQP7 in GDN on Quantifoil Cu R1.2/1.3 holey carbon grids, 4 °C; octamer = dimer of tetramers; D4 (2.55 Å) and C1 (3.0 Å) reconstructions.

B1: Human aquaglyceroporin 7 (AQP7), full-length, C-terminal poly-histidine tag (natural protein, UniProt O14520 1-342, looked up)
chain: MVQASGHRRSTRGSKMVSWSVIAKIQEILQRKMVREFLAEFMSTYVMMVFGLGSVAHMVLNKKYGSYLGVNLGFGFGVTMGVHVAGRISGAHMNAAVTFANCALGRVPWRKFPVYVLGQFLGSFLAAATIYSLFYTAILHFSGGQLMVTGPVATAGIFATYLPDHMTLWRGFLNEAWLTGMLQLCLFAITDQENNPALPGTEALVIGILVVIIGVSLGMNTGYAINPSRDLPPRIFTFIAGWGKQVFSNGENWWWVPVVAPLLGAYLGGIIYLVFIGSTIPREPLKLEDSVAYEDHGITVLPKMGSHEPTISPLTPVSVSPANRSSVHPAPPLHESMALEHF
notes: Aquaporin-7 (aquaglyceroporin 7), human, full-length gene; residues 25-277 modelled in the 2.55 Å map; Tetramers that pair into an octamer (dimer of tetramers) in the cryo-EM structure; only ~47% of all particles were in the octamer class; also called human AQP7; source: P. pastoris GS115 aqy1Δ::HIS4 agp1Δ::NatMX, purified (Ni-NTA, size-exclusion chromatography) in GDN
One may read the stoichiometry N as a count of units in the complex or per binding partner. Turning to B1, the “stoichiometry N” value stood at 8.
